Source: paper PMC8678608, “A Novel Bispecific Antibody Targeting PD-L1 and VEGF With Combined Anti-Tumor Activities” (Frontiers in Immunology, 2021)

B1: HB0025 (anti-PD-L1/VEGFR1D2-Ig fusion protein) (bispecific antibody, V domains shown)
VH: QVQLVQSGAEVKKPGASVKVSCKASGYAFTGYTIHWVRQAPGQRLEWMGWFYPGSGTLKYSEKFQGRVTITRDKSLSTAYMELSSLRSEDTAVYYCARHGTGTLMAMDYWGQGTLVTVSS
VL: DVVMTQTPLSLSVTPGQPASISCKSSQSLANSYGNTYLSWYLHKPGQSPQLLIYGISNRFSGVPDRFSGSGSGTDFTLKISRVEAEDVGVYYCLQGTHQPPTFGQGTKLEIK
notes: soluble extracellular domain 2 of human VEGF receptor 1 (VEGFR1D2); humanized VH of the parent anti-PD-L1 antibody HB0023; human IgG1 heavy constant domains, as in the heavy chain of HB0023; IgG1-like mAb-Trap format; Clinical trial NCT04678908; also called bispecific antibody; BsAb; copies: 2 +
B2: HB002.1T (VEGFR1D2-Ig fusion protein) (Fc fusion)
chain: SDTGRPFVEMYSEIPEIIHMTEGRELVIPCRVTSPNITVTLKKFPLDTLIPDGKRIIWDSRKGFIISNATYKEIGLLTCEATVNGHLYKTNYLTHRQTNTIID
modifications: Fc-dimerised fusion: D2 at the N-terminus of IgG Fc, with Fc and any linker left out. Limits are inferred from HB0025 numbering, assuming HB002.1T has the same D2. N36/N68 and the N99-T100 cleavage …

Columns and labels:
[1] = biological target: T1, human PD-L1 (Homo sapiens (Human)., UniProt Q9NZQ7); assay: cell-based or functional assay
[2] = biological target: T1, human PD-L1; assay: ELISA; plates coated with recombinant human PD-L1 or VEGF165 (100 ng/well, carbonate buffer); antibody 1 h at room temperature; detected with HRP goat anti-human Fc, TMB, 450 nm; conditions: both partners purified
[3] = biological target: T1, human PD-L1; assay: SPR; Biacore 8K, 25 °C; antibody or fusion protein captured by anti-human IgG (Fc) on a CM5 chip; analyte (VEGF165 from 3 nM or PD-L1 from 50 nM, 2-fold titrations) injected 120 s, dissociation 1800 s, 30 μL/min; single-cycle kinetics, 1:1 model; no enhancement step (buffer); conditions: both partners purified
[4] = biological target: T1, human PD-L1; assay: SPR; as a1, but 10 nM human VEGF165 injected first to saturate VEGF binding by captured HB0025, then PD-L1 as analyte; conditions: both partners purified
[5] = biological target: T1, human PD-L1; assay: SPR; valence: HB0025 (300 RU), HB0023 (250 RU) or HB002.1T (200 RU) captured; 200 nM PD-L1 injected twice for 60 s, then 10 nM VEGF165 twice for 60 s; stoichiometric ratio from response units and molecular weights; running buffer pH 7.4; conditions: both partners purified
[6] = biological target: T2, human VEGF165 protein (human); assay: ELISA; plates coated with recombinant human PD-L1 or VEGF165 (100 ng/well, carbonate buffer); antibody 1 h at room temperature; detected with HRP goat anti-human Fc, TMB, 450 nm; conditions: both partners purified
T2 construct: human VEGF-A, the 165-residue isoform VEGF165; also called VEGF dimer; source: bought: Sino Biological Inc. (11066-HNAH)

[7] = biological target: T2, human VEGF165 protein; assay: SPR; Biacore 8K, 25 °C; antibody or fusion protein captured by anti-human IgG (Fc) on a CM5 chip; analyte (VEGF165 from 3 nM or PD-L1 from 50 nM, 2-fold titrations) injected 120 s, dissociation 1800 s, 30 μL/min; single-cycle kinetics, 1:1 model; no enhancement step (buffer); conditions: both partners purified

T1 sequence (Q9NZQ7 19-238): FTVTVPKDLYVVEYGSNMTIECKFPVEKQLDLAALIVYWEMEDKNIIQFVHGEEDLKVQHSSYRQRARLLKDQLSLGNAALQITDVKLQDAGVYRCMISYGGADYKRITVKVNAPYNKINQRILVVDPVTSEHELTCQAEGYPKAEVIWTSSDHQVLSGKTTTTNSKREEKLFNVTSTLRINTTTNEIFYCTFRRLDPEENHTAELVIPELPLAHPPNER

Row | Binder | EC50 of the recovery of IL-2 secretion in a mixed lymphocyte reaction (DCs and PBMCs, 3.8 pM-25 nM antibody); blocks PD-1/PD-L1 [1] [pM] | EC50 [2] [nM] | Kd [3] [nM] | koff [3] [s⁻¹] | kon [3] [M⁻¹ s⁻¹] | Kd [4] [nM] | koff [4] [s⁻¹] | kon [4] [M⁻¹ s⁻¹] | stoichiometry N [5] [PD-L1 monomers per HB0025] | EC50 [6] [nM] | Kd [7] [nM] | koff [7] [s⁻¹] | kon [7] [M⁻¹ s⁻¹]
1 | B1 | ~509 | 0.67 | 1.76 | 0.00051 | 290000 | 1.98 | 0.000395 | 200000 | ~1.7 | – | – | – | –
2 | B2 | – | – | – | – | – | – | – | – | – | 0.17 | 0.00111 | 5.03e-05 | 4.54e+07
